B1: Pistol ribozyme (parent)
chain: GGGUCGUUGUUCCAUAAUCGCGUGGAUAUGGCACGCAAGUUUCUACCGGGCACCGUAAAUGUCCGACUGGAGCCGUUCGGGCGGCUAUAAACAGACCUCAGGCCCGAAGCGUGGCGGCACCUGCCGCCGGUGGUAAAAAAGAUCGGAAGAGCACACGUCU

Variants of: B1
Assay: aptazyme ON/OFF ratio, guanine; higher = stronger switching; co-transcriptional cleavage with and without guanine

| Variant | aptazyme ON/OFF ratio |
| --- | --- |
| U8C G9A U10A C13G | 1.05 |
| U8C G9A U10A C13A | 1.17 |
| U8C G9A U10A C13U | 1.42 |
| U8C G9A C13A | 1.22 |
| U8C G9A C13G | 1.07 |
| U8C G9A C13U | 1.43 |
| U8C G9A U10C U11C C12A | 1.17 |
| U8C G9A U10C U11C C12U | 1.08 |
| U8C G9A U10C U11C C12G | 1.18 |
| U8C G9A U10G U11A C12G C13A | 1.19 |
| U8C G9A U10G U11A C12G C13G | 1.35 |
| U8C G9A U10G U11A C12G C13U | 1.22 |
| U8C G9A U10G U11C C12G C13G | 1.28 |
| U8C G9A U10G U11C C12G C13A | 1.18 |
| U8C G9A U10G U11C C12G C13U | 1.2 |
| U8C G9A U10A U11C C12U | 1.09 |
| U8C G9A U10A U11C C12A | 1.25 |
| U8C G9A U10A U11C C12G | 1.29 |
| U8C | 3.02 |
| U8C G9A U10A U11C C13A | 1.05 |
| U8C G9A U10A U11C C13G | 1.04 |
| U8C G9A U10A U11C C13U | 1.06 |
| U8C G9A U10G C12U | 1.36 |
| U8C G9A U10G C12G | 1.15 |

| Variant | aptazyme ON/OFF ratio |
| --- | --- |
| U8C G9A U10G C12A | 1.16 |
| U8C G9A U10C | 3.49 |
| U8C G9A U10A | 1.78 |
| U8C G9A U10G | 1.57 |
| U8C G9A U10C C12U C13U | 1.21 |
| U8C G9A U10C C12U C13A | 1.29 |
| U8C G9A U10C C12U C13G | 1.26 |
| U8C G9A U10G U11G C13U | 1.09 |
| U8C G9A U10G U11G C13G | 1.13 |
| U8C G9A U10G U11G C13A | 1.15 |
| U8C G9A U11C C12G C13A | 1.24 |
| U8C G9A U11C C12G C13U | 1.18 |
| U8C G9A U11C C12G C13G | 1.26 |
| U8C C13U | 1.55 |
| U8C C13G | 1.11 |
| U8C C13A | 1.36 |
| U8C G9A U11A C12U C13U | 1.29 |
| U8C G9A U11A C12U C13A | 1.21 |
| U8C G9A U11A C12U C13G | 1.14 |
| U8C G9C C12G | 1.19 |
| U8C G9C C12A | 1.16 |
| U8C G9A U10A U11C C12U C13G | 1.14 |
| U8C G9A U10A U11C C12U C13A | 1.13 |
| U8C G9A U10A U11C C12U C13U | 1.14 |

| Variant | aptazyme ON/OFF ratio |
| --- | --- |
| U8C C12G | 1.38 |
| U8C C12U | 1.49 |
| U8C C12A | 1.52 |
| U8A U10G U11G C12U | 1.48 |
| U8C G9A U10G U11A C12A | 1.19 |
| U8C G9A U10G U11A C12G | 1.14 |
| U8C G9A U10G U11A C12U | 1.04 |
| U8C G9A U10A C12A | 1.22 |
| U8C G9A U10A C12G | 1.29 |
| U8C G9A U10A C12U | 1.31 |
| U8A U10G U11G C13G | 1.28 |
| U8A U10G U11G C13U | 1.3 |
| U8A U10G U11G C13A | 1.33 |
| U8C G9A C12U | 1.38 |
| U8C G9A C12A | 1.35 |
| U8C G9A C12G | 1.26 |
| U8C G9A U11C C12U C13U | 1.22 |
| U8C G9A U11C C12U C13A | 1.16 |
| U8C G9A U11C C12U C13G | 1.08 |
| U8C G9A U10G U11G C12G C13U | 1.11 |
| U8C G9A U10G U11G C12G C13A | 1.1 |
| U8C G9A U10G U11G C12G C13G | 1.09 |
| U8C G9A U10C U11G C12U C13G | 1.15 |
| U8C G9A U10C U11G C12U C13U | 1.51 |

| Variant | aptazyme ON/OFF ratio |
| --- | --- |
| U8C G9A U10C U11G C12U C13A | 1.42 |
| U8C G9A U10A U11G C12A C13A | 1.1 |
| U8C G9A U10A U11G C12A C13U | 1.11 |
| U8C G9A U10A U11G C12A C13G | 1.17 |
| U8C G9A U10C U11C C12A C13A | 1.13 |
| U8C G9A U10C U11C C12A C13U | 1.1 |
| U8C G9A U10C U11C C12A C13G | 1.12 |
| U8C G9A U10A U11C C12G C13U | 1.3 |
| U8C G9A U10A U11C C12G C13G | 1.35 |
| U8C G9A U10A U11C C12G C13A | 1.21 |
| U8A U11C C12G | 1.51 |
| U8A U11C C12U | 1.54 |
| U8A U11C C12A | 1.29 |
| U8C G9A U10A U11C C12A C13U | 1.19 |
| U8C G9A U10A U11C C12A C13A | 1.17 |
| U8C G9A U10A U11C C12A C13G | 1.18 |
| U8C G9A U11G C12G C13A | 1.19 |
| U8C G9A U11G C12G C13U | 1.11 |
| U8C G9A U11G C12G C13G | 1.19 |
| U8C G9A U10C U11C C12G C13G | 1.3 |
| U8C G9A U10C U11C C12G C13U | 1.16 |
| U8C G9A U10C U11C C12G C13A | 1.24 |
| U8C G9A U10A C12G C13A | 1.14 |
| U8C G9A U10A C12G C13U | 1.31 |

| Variant | aptazyme ON/OFF ratio |
| --- | --- |
| U8C G9A U10A C12G C13G | 1.18 |
| U8C C12U C13G | 1.39 |
| U8C C12U C13A | 1.26 |
| U8C C12U C13U | 1.28 |
| U8C G9A U10G C13U | 1.26 |
| U8C G9A U10G C13G | 1.14 |
| U8C G9A U10G C13A | 1.28 |
| U8C G9A U11C C12A | 1.3 |
| U8C G9A U11C C12U | 1.16 |
| U8C G9A U11C C12G | 1.29 |
| U8C G9A U10G U11C C12U C13U | 1.28 |
| U8C G9A U10G U11C C12U C13G | 1.15 |
| U8C G9A U10G U11C C12U C13A | 1.2 |
| U8C G9A U11G C12A | 1.06 |
| U8C G9A U11G C12U | 1.29 |
| U8C G9A U11G C12G | 1.3 |
| U8A U10G U11G C12U C13A | 1.15 |
| U8A U10G U11G C12U C13U | 1.43 |
| U8A U10G U11G C12U C13G | 1.28 |
| U8C G9A U10C C12U | 1.95 |
| U8C G9A U10C C12A | 1.35 |
| U8C G9A U10C C12G | 1.24 |
| U8C G9A U10C U11G C12G C13U | 1.14 |
| U8C G9A U10C U11G C12G C13A | 1.42 |

| Variant | aptazyme ON/OFF ratio |
| --- | --- |
| U8C G9A U10C U11G C12G C13G | 1.23 |
| U8C G9A U10A U11G C12A | 1.04 |
| U8C G9A U10A U11G C12U | 1.26 |
| U8C G9A U10A U11G C12G | 1.12 |
| U8A U11C C12G C13U | 1.12 |
| U8A U11C C12G C13A | 1.31 |
| U8A U11C C12G C13G | 1.32 |
| U8C C12A C13U | 1.21 |
| U8C C12A C13A | 1.24 |
| U8C C12A C13G | 1.1 |
| U8C G9A U10G U11A | 1.02 |
| U8C G9A U10G U11G | 1.06 |
| U8C G9A U10G U11C | 1.05 |
| U8C G9A U10C C12A C13A | 1.27 |
| U8C G9A U10C C12A C13U | 1.33 |
| U8C G9A U10C C12A C13G | 1.18 |
| U8C G9A U11A C12G C13G | 1.2 |
| U8C G9A U11A C12G C13A | 1.14 |
| U8C G9A U11A C12G C13U | 1.23 |
| U8A U11C C12A C13A | 1.24 |
| U8A U11C C12A C13U | 1.38 |
| U8A U11C C12A C13G | 1.17 |
| U8C G9A U11C C13U | 1.04 |
| U8C G9A U11C C13G | 1.04 |

| Variant | aptazyme ON/OFF ratio |
| --- | --- |
| U8C G9A U11C C13A | 1.06 |
| U8C G9A C12G C13U | 1.26 |
| U8C G9A C12G C13G | 1.27 |
| U8C G9A C12G C13A | 1.23 |
| U8C G9A U10G C12A C13U | 1.28 |
| U8C G9A U10G C12A C13G | 1.1 |
| U8C G9A U10G C12A C13A | 1.27 |
| U8C G9A U10G U11A C13G | 1.04 |
| U8C G9A U10G U11A C13A | 1.03 |
| U8C G9A U10G U11A C13U | 1.02 |
| U8C G9A U10C U11C C13G | 1.02 |
| U8C G9A U10C U11C C13A | 1.01 |
| U8C G9A U10C U11C C13U | 1.01 |
| U8C G9A U10G C12U C13G | 1.2 |
| U8C G9A U10G C12U C13U | 1.54 |
| U8C G9A U10G C12U C13A | 1.19 |
| U8A U11G C13G | 1.04 |
| U8A U11G C13U | 1.04 |
| U8A U11G C13A | 1.03 |
| U8C G9A U10G U11G C12U C13U | 1.22 |
| U8C G9A U10G U11G C12U C13G | 1.1 |
| U8C G9A U10G U11G C12U C13A | 1.09 |
| U8C G9A U10G U11A C12U C13G | 1.16 |
